The values that follow come from US20160046944, “APTAMER TO IL-17 AND USE THEREOF” (THE UNIVERSITY OF TOKYO, published 2016).

Sequences and labels used below:
T1: IL-17 (IL-17A) (Homo sapiens, UniProt Q16552 Q16552:24-155)
T1 sequence: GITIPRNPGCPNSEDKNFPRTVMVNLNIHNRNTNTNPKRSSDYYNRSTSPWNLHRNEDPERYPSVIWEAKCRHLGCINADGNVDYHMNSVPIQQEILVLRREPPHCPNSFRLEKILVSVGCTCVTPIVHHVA

T2: IL-17 (Homo sapiens, UniProt Q16552 Q16552:24-155)
T2 sequence: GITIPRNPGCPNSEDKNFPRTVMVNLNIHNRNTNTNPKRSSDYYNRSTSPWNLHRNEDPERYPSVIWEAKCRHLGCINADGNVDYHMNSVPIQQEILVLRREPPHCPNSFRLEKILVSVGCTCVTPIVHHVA

B1: aptamer No. 64 (mixed)
mixed: GGGUAGCCGGAGGAGTCAGTAAUCGGUACCC
modifications: g(M)g(M)g(M)u(M)a(M)g(S)c(M)c(M)Gg(M)a(F)gg(M)a(M)g(S)Tc(M)a(F)g(S)Ta(M)a(M)u(M)c(M)g(M)g(M)u(F)a(M)c(M)c(M)c(M)
B2: aptamer No. 65 (mixed)
mixed: GGGUAGCCGGAGGAGTCAGTAAUCGGUACCC
modifications: g(M)g(M)g(M)u(M)a(M)g(S)c(M)c(M)Gg(M)a(F)gg(M)a(M)gTc(F)a(F)gTa(M)a(M)u(M)c(M)g(M)g(M)u(M)a(M)c(M)c(M)c(M)
B3: aptamer No. 66 (mixed)
mixed: GGGUAGCCGGAGGAGTCAGTAAUCGGUACCC
modifications: g(M)g(M)g(M)u(M)a(M)g(S)c(M)c(M)Gg(M)a(F)gg(M)a(M)g(S)Tc(F)a(F)g(S)Ta(M)a(M)u(M)c(M)g(M)g(M)u(M)a(M)c(M)c(M)c(M)
B4: aptamer No. 85 (mixed)
RNA: GGGUAGCCGGAGGAGUCAGUAAUCGGUACCC
modifications: g(M)g(M)g(M)u(M)a(M)g(S)c(M)c(M)Gg(M)a(M)gg(M)a(M)g(S)u(F)c(F)a(F)g(S)u(F)a(M)a(M)u(M)c(M)g(M)g(M)u(F)a(M)c(M)c(M)c(M)
B5: aptamer No. 62 (mixed)
mixed: GGGUAGCCGGAGGAGTCAGTAAUCGGUACCC
modifications: g(M)g(M)g(M)u(M)a(M)g(S)c(M)c(M)Gg(M)a(F)gg(M)a(M)gTc(F)a(F)gTa(M)a(M)u(M)c(M)g(M)g(M)u(F)a(M)c(M)c(M)c(M)
B6: aptamer No. 92 (mixed)
RNA: GGGUAGCCGGAGGAGUCAGUAAUCGGUACCC
modifications: g(M)g(M)g(M)u(M)a(M)g(S)c(M)c(M)Gg(M)a(M)gg(M)a(M)g(S)u(F)c(F)a(F)g(S)u(F)aa(M)u(M)c(M)g(M)g(M)u(F)a(M)c(M)c(M)c(M)
B7: aptamer No. 68 (mixed)
RNA: GGGUAGCCGGAGGAGUCAGUAAUCGGUACCC
modifications: g(M)g(M)g(M)u(M)a(M)g(S)c(M)c(M)Gg(M)a(F)gg(M)a(M)g(S)u(F)c(F)a(F)g(S)u(F)a(M)a(M)u(M)c(M)g(M)g(M)u(F)Ac(M)c(M)c(M)
B8: aptamer No. 59 (mixed)
mixed: GGGUAGCCGGAGGAGTCAGTAAUCGGUACCC
modifications: g(M)g(M)g(M)u(M)Ag(S)c(M)c(M)Gg(M)a(F)gg(M)a(M)g(S)Tc(F)a(F)g(M)Ta(M)a(M)u(M)c(M)g(M)g(M)u(F)a(M)c(M)c(M)c(M)
B9: aptamer No. 60 (mixed)
mixed: GGGUAGCCGGAGGAGTCAGTAAUCGGUACCC
modifications: g(M)g(M)g(M)u(M)a(M)g(S)c(M)c(M)Gg(M)a(F)gg(M)a(M)g(S)Tc(F)a(F)g(M)Ta(M)a(M)u(M)c(M)g(M)g(M)u(F)a(M)c(M)c(M)c(M)
B10: aptamer No. 63 (mixed)
mixed: GGGUAGCCGGAGGAGTCAGTAAUCGGUACCC
modifications: g(M)g(M)g(M)u(M)a(M)g(S)c(M)c(M)Gg(M)a(F)gg(M)a(M)g(S)Tc(F)a(F)g(S)Ta(M)a(M)u(M)c(M)g(M)g(M)u(F)a(M)c(M)c(M)c(M)
B11: aptamer No. 90 (mixed)
mixed: GGGUAGCCGGAGGAGTCAGTAAUCGGUACCC
modifications: g(M)g(M)g(M)u(M)a(M)g(S)c(M)c(M)Gg(M)a(M)gg(M)a(M)g(S)Tc(M)a(F)g(S)Ta(M)au(M)c(M)g(M)g(M)u(M)a(M)c(M)c(M)c(M)
B12: aptamer No. 1 (mixed)
RNA: GGGUAGCCGGAGGAGUCAGUAAUCGGUACCC
modifications: LNA (L), 2'-F (F), PS (S), mc methylcytosine as marked; SEQ ID NO:1 [LNA at 1-3,29-31 (29-31 methylcytosine); 2'-F at 4,7,8,16,17,20,23,24,27; PS at 6,9]
B13: aptamer No. 39 (mixed)
mixed: GGGUAGCCGGAGGAGTCAGTAAUCGGTACCC
modifications: 2'-OMe (M), 2'-F (F) as marked; uppercase DNA [2'-OMe: 1-4,7,8,10,13,14,22-26,28-31; 2'-F: 17]
B14: aptamer No. 48 (mixed)
mixed: GGGUAGCCGGAGGAGTCAGTAAUCGGUACCC
modifications: 2'-OMe (M), 2'-F (F) as marked; uppercase DNA [2'-OMe: 1-4,7,8,10,13,14,23-26,28; 2'-F: 17,27]
B15: aptamer No. 6 (mixed)
mixed: GGGUAGCCGGAGGAGTCAGTAAUCGGUACCC
modifications: 2'-OMe (M), 2'-F (F), PS (S) as marked; uppercase DNA; (NI) printed, likely (M) [1,2,3,4,5,6,7,8,10,13,14,17,18,21,22,23,24,25,26,27]
B16: aptamer No. 10 (mixed)
mixed: GGGUAGCCGGAGGAGTCAGTAAUCGGUACCC
modifications: 2'-OMe (M), 2'-F (F), PS (S) as marked; uppercase DNA [1,2,3,4,5,6,7,8,10,11,13,14,17,18,21,23,24,25,26,27]
B17: aptamer No. 47 (mixed)
mixed: GGGUAGCCGGAGGAGTCAGTAAUCGGUACCC
modifications: 2'-OMe (M), 2'-F (F) as marked; uppercase DNA [2'-OMe: 1-4,7,8,10,13,14,23-26,28; 2'-F: 11,17,18,27]
B18: aptamer No. 33 (mixed)
mixed: GGGUAGCCGGAGGAGTCAGTAAUCGGTACCC
modifications: 2'-OMe (M), 2'-F (F) as marked; uppercase DNA [2'-OMe: 1,2,3,4,7,8,10,13,14,21,23,24,25,26; 2'-F: 17]
B19: aptamer No. 37 (mixed)
mixed: GGGUAGCCGGAGGAGTCAGTAAUCGGTACCC
modifications: 2'-OMe (M), 2'-F (F) as marked; uppercase DNA; (NI) printed, likely (M) [2'-OMe: 1,2,3,4,7,10,13,14,23,24,25,26,28,29,30,31; 2'-F: 17; 8 printed (NI), likely 2'-OMe]
B20: aptamer No. 49 (mixed)
mixed: GGGUAGCCGGAGGAGTCAGTAAUCGGUACCC
modifications: 2'-OMe (M), 2'-F (F) as marked; uppercase DNA; (PI) printed, likely (M) [2'-OMe: 1-4,7,8,10,14,23-26,28; 2'-F: 17,27; 13 printed (PI), likely 2'-OMe]
B21: aptamer No. 22 (mixed)
mixed: GGGUAGCCGGAGGAGTCAGTAAUCGGTACCC
modifications: 2'-OMe (M), 2'-F (F) as marked; uppercase DNA [2'-OMe: 1-4,7,8,10,13,14,23-26,28-31; 2'-F: 17]
B22: aptamer No. 21 (mixed)
mixed: GGGUAGCCGGAGGAGTCAGTAAUCGGTACCC
modifications: 2'-OMe (M), 2'-F (F), PS (S) as marked; uppercase DNA [2'-OMe: 1-4,7,8,10,13,14,23-26,28-31; 2'-F: 17; PS: 6]

The term IC50 denotes the midpoint of a concentration-inhibition curve.

In one data set the target is T1, IL-17 (IL-17A). As to the kind of experiment: cell_activity; IL-6 release, NIH3T3. The note with it: chain copies: 2. As for the experimental part: First, human IL-17 and the aptamer produced in Example 1-2 were pre-incubated at 37° C. for 30 min, and added to NIH3T3 cell (ATCC, CRL1658) together with mouse TNFα (2 ng/mL). Then, after incubation for 24 hr, the culture supernatant was collected, and the production amount of IL-6 was measured by ELISA method described below. The IL-17 inhibitory action of each aptamer was determined from the production amount of IL-6. For comparison with the aptamer of the present invention, a conventionally-known aptamer (aptamer No. 50) against IL-17 was used.
ELISA method for verifying IL-17 inhibitory action of aptamer: A microtiter plate for ELISA was coated with rat anti-mouse IL-6 antibody (BD Biosciences, 2 μg/mL; 100 μL/well) diluted with PBS, and incubated at 4° C. overnight. The next day, the microtiter plate was washed 3 times with PBS/0.05% Tween 20, and applied blocking with PBS/1% BSA (200 μL/well) at room temperature for 2 hr. Then, the plate was washed 3 times with PBS/0.05% Tween 20. Recombinant mouse IL-6 (BD Biosciences; 100 μL/well) serially diluted with PBS/1% BSA/0.05% Tween 20 or culture supernatants (100 μL/well) were added to the plate. After incubation at room temperature for 2 hr, the plate was washed 3 times with PBS/0.05% Tween 20. Then, 100 μL/well of biotin conjugated rat anti-mouse IL-6 antibody (BD Biosciences) was added to the plate at final dilution of 1/500, and the mixture was reacted at room temperature for 1 hr. After washing 3 times with PBS/0.05% Tween 20, 100 μL/well of alkaline phosphatase conjugated streptavidin was added at final dilution of 1/1000. After 30 min at room temperature, the plate was again washed 4 times with PBS/0.05% Tween 20, and a substrate (1-Step PNPP; Thermo Fisher Scientific Inc; 100 μL/well) was added. After 15 min, aqueous sodium hydroxide solution (2N: 50 μL/well) was added to stop the reaction, and the plate was read on a microtiter reader (Bio-Rad) by using a 405 nm filter.
Molecule B1 had an IC50 of 4.64 nM.

Turning to B2, the IC50 was found to be 0.67 nM.

B3 yielded an IC50 of 1.21 nM.

For B4, 0.96 nM corresponded to half-maximal inhibition (IC50).

The molecule B5 displayed an IC50 of 0.69 nM.

On to B6, for which 2.6 nM corresponded to half-maximal inhibition (IC50).

B7 registered an IC50 of 2.4 nM. The IC50 values of the last two molecules are within 1.5-fold of each other.

B8: inhibition was half-maximal at 1.19 nM (IC50).

The molecule B9 showed an IC50 of 2.35 nM.

For B10, half-maximal inhibition (IC50) was put at 0.81 nM.

As to B11, the IC50 was 1.08 nM. This IC50 and that of the molecule before are within 1.5-fold of each other.

A further data set concerns the target T2, IL-17. As to the kind of experiment: SPR; IL-17R-Fc on chip. The following applies: chain copies: 2. As for the experimental part: Whether aptamers shown by aptamer Nos. 1-49 inhibit the binding of IL-17 and IL-17 receptor was evaluated by the surface plasmon resonance method.
For the measurement, BIAcore2000 manufactured by BIAcore was used. […] As an analyte, IL-17 (100 or 150 nM) and an aptamer (50 or 100 nM) shown by aptamer No. 1-49 were mixed, maintained for 15 min and after that the mixture was flown.
(In general: SPR reads the build-up and loss of mass on a sensor chip optically.)
Consider B12, for which the binding signal was 28.6 % IL-17/IL-17R binding remaining.

Consider B13, for which the binding signal is 14.8 % IL-17/IL-17R binding remaining.

As to B14, the binding signal was 19.2 % IL-17/IL-17R binding remaining.

For the molecule B15, the binding signal is 25.3 % IL-17/IL-17R binding remaining.

B16: the binding signal is 25.2 % IL-17/IL-17R binding remaining.

On to B17, for which the binding signal was 17.6 % IL-17/IL-17R binding remaining.

For the molecule B18, the binding signal was 15.9 % IL-17/IL-17R binding remaining.

For the molecule B19, the binding signal was 15.5 % IL-17/IL-17R binding remaining.

On to B20, for which the binding signal is 19 % IL-17/IL-17R binding remaining.

The target of a further data set is T2, IL-17. Nature of the data set: cell_activity; NIH3T3 IL-6 release. The note with it: chain copies: 2. As for the experimental part:
First, human IL-17 and the aptamer produced in Example 1-1 were pre-incubated at 37° C. for 30 min, and added to NIH3T3 cell (ATCC, CRL1658) together with mouse TNFα (2 ng/mL). Then, after incubation for 24 hr, the culture supernatant was collected, and the amount of IL-6 was measured by BD Cytometric Bead Array (BD Biosciences). The IL-17 inhibitory action of each aptamer was determined from the amount of IL-6. For comparison with the aptamer of the present invention, a conventionally-known aptamer (aptamer No. 50) against IL-17 was used.
In turn, B12 yielded an IC50 of 1.17 nM.

Molecule B15 displayed an IC50 of 0.77 nM.

On to B21, for which the IC50 is 1.66 nM.

Turning to B16, the IC50 was determined as 0.63 nM.

Regarding B22, the IC50 was 0.39 nM.
